Data taken from the supplement of paper PMC10126150.
± gives the standard deviation of the averaged measurements.

System: ATP
Assay: switch fluorescence ratio, 500 uM ATP over buffer (Cy3 cluster intensity, sum of 5 cycles each) (fold (ratio)); higher = stronger signal-on switching upon ATP binding; sequences stand for … in TCGTCGGCAGCGTCAGATGTGTATAAGAGACAGTTTTTTTTTTTTTTTTTTTTTTTTT…TC
Details: aptamer strand: ATP DNA aptamer (quencher-CACCTGGGGGAGTATTGCGGAGGAAGG + anchor), 100 nM annealed; ATP concentration: 500 uM
Outline: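 Cy3-labelled switching-strand clusters on a modified Illumina MiSeq flow-cell were annealed to 100 nM quencher-labelled ATP aptamer and imaged first in selection buffer, then after 15 min with 500 uM ATP at 22 °C. NaOH stripping and re-annealing separated each of five buffer/ATP cycles, and clusters outside 100-1000 RFU were excluded. The fluorescence ratio sums target-cycle Cy3 intensity over buffer-cycle Cy3 intensity per cluster and averages it per switch-domain sequence.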
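Also: ATP exposure 15 min at 22 °C before imaging.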

Sequence | switch fluorescence ratio
AAGGGATAGG | 0.9844 ± 0.001
AAGGGATTGC | 0.995 ± 0.053
AAGGGCAAAT | 0.978 ± 0.015
AAGGGCCAAT | 1 ± 0.022
AAGGGCCCGT | 1.02 ± 0.022
AAGGGCGCAG | 0.993 ± 0.056
AAGGGCTATA | 1.01 ± 0.047
AAGGGCTGCG | 0.98 ± 0.1
AAGGGCTTCT | 1.01 ± 0.018
AAGGGGAATG | 1.02 ± 0.056
AAGGGGACAG | 0.995 ± 0.03
AAGGGGAGAA | 0.9872 ± 0.008
AAGGGGCGT | 0.9961 ± 0.0036
AAGGGGGCAT | 0.979 ± 0.033
AAGGGGGCCT | 1 ± 0.024
AAGGGGGGA | 1.01 ± 0.072
AAGGGGGTTA | 0.991 ± 0.025
AAGGGGTTCG | 1.05 ± 0.023
AAGGGGTTCT | 1.01 ± 0.016
AAGGGTATAT | 0.9834 ± 0.0063
AAGGGTATTG | 0.995 ± 0.024
AAGGGTCAAA | 0.985 ± 0.048
AAGGGTCAGC | 0.9917 ± 0.0081
AAGGGTCTCG | 1.03 ± 0.095
AAGGGTGGGA | 1.01 ± 0.039

Sequence | switch fluorescence ratio
AAGGGTGGGG | 1 ± 0.058
AAGGGTTAT | 0.995 ± 0.017
AAGGGTTTAA | 0.98 ± 0.018
AAGGTAGTGG | 0.962 ± 0.017
AAGGTCAAGC | 1 ± 0.063
AAGGTCCATG | 0.9631 ± 0.0013
AAGGTCGGGA | 0.9966 ± 0.0087
AAGGTCTTAG | 0.968 ± 0.039
AAGGTGAAGA | 1.04 ± 0.029
AAGGTGATAG | 1 ± 0.019
AAGGTGCGGG | 0.999 ± 0.023
AAGGTGCTGC | 1.035 ± 0.0022
AAGGTGGGCC | 0.985 ± 0.019
AAGGTGGGTT | 1.01 ± 0.059
AAGGTTACCG | 1.04 ± 0.021
AAGGTTAGAC | 1.03 ± 0.012
AAGGTTATGC | 0.987 ± 0.039
AAGGTTCTGA | 0.981 ± 0.016
AAGGTTCTGG | 0.9883 ± 0.0083
AAGGTTGTTT | 0.983 ± 0.03
AAGTAAACAT | 1.06 ± 0.036
AAGTAACTC | 1.03 ± 0.027
AAGTAAGGGC | 1.02 ± 0.031
AAGTACGTAG | 1.011 ± 0.0065
AAGTACGTTC | 1.25 ± 0.035

Sequence | switch fluorescence ratio
AAGTACTTTA | 1.14 ± 0.013
AAGTACTTTT | 1.2 ± 0.055
AAGTAGGCAC | 1.022 ± 0.0018
AAGTAGTCCC | 1.3 ± 0.39
AAGTATGGGT | 0.998 ± 0.028
AAGTATGGTA | 0.965 ± 0.075
AAGTCCAAGA | 1.01 ± 0.033
AAGTCCCAGC | 0.995 ± 0.048
AAGTCCCTTC | 1.01 ± 0.035
AAGTCCGGGG | 0.9698 ± 0.0013
AAGTCGAAGT | 0.98568 ± 0.00082
AAGTCGACAC | 1.02 ± 0.032
AAGTCGACGT | 1.03 ± 0.041
AAGTCGATTG | 0.99 ± 0.017
AAGTCGTCCG | 0.985 ± 0.044
AAGTGAAACA | 1.03 ± 0.037
AAGTGCATGC | 1.01 ± 0.11
AAGTGCTTGA | 1 ± 0.069
AAGTGGAGGC | 1.04 ± 0.0072
AAGTGGAGTG | 0.999 ± 0.041
AAGTGGCTGT | 0.941 ± 0.027
AAGTGGGACC | 1.02 ± 0.025
AAGTGGGCGC | 0.984 ± 0.016
AAGTGGGGGT | 1 ± 0.039
AAGTGGGGTC | 0.948 ± 0.037

Sequence | switch fluorescence ratio
AAGTGGTGTC | 0.99 ± 0.13
AAGTGGTGTT | 0.984 ± 0.028
AAGTGTAAGG | 1.018 ± 0.0039
AAGTGTCGGG | 0.994 ± 0.025
AAGTTACCTG | 1.087 ± 0.0019
AAGTTATGGC | 0.9598 ± 0.0046
AAGTTCACGG | 1.06 ± 0.025
AAGTTCATCT | 1 ± 0.07
AAGTTCGCCA | 0.994 ± 0.01
AAGTTCGTAA | 1.03 ± 0.0079
AAGTTGACGG | 0.985 ± 0.011
AAGTTGATTA | 1.006 ± 0.004
AAGTTGATTG | 1.023 ± 0.0031
AAGTTGCACC | 1 ± 0.067
AAGTTGGTGG | 0.987 ± 0.033
AAGTTGTTTC | 0.988 ± 0.013
AAGTTTATTA | 0.964 ± 0.017
AAGTTTCTG | 0.9892 ± 0.0025
AAGTTTGCGT | 0.993 ± 0.022
AAGTTTGTGT | 1.02 ± 0.0045
AAGTTTTATC | 0.989 ± 0.021
AAGTTTTCGC | 0.9789 ± 0.0067
AAGTTTTTCG | 1.01 ± 0.014
AATAAAATCG | 1.04 ± 0.01
AATAAAGAAT | 0.973 ± 0.019

Sequence | switch fluorescence ratio
AATAAATAGG | 0.9953 ± 0.0053
AATAAATCTA | 1.039 ± 0.0016
AATAACGATC | 1.037 ± 0.0063
AATAACGGTG | 1.07 ± 0.019
AATAAGAAGG | 0.999 ± 0.013
AATAAGAGTT | 0.995 ± 0.05
AATAAGATTG | 0.987 ± 0.022
AATAAGCTCG | 0.9792 ± 0.0018
AATAAGGGGC | 1.0051 ± 0.00093
AATAATAGGT | 1.016 ± 0.007
AATAATCAGG | 0.9926 ± 0.0086
AATAATTGGG | 0.9967 ± 0.0012
AATACCGTT | 0.968 ± 0.055
AATACCTGAA | 1.17 ± 0.017
AATACGATGC | 1.2 ± 0.091
AATACGGCAC | 1.852 ± 0.006
AATACGTATA | 1.1 ± 0.068
AATACGTGGA | 1.029 ± 0.0036
AATACTGGTT | 1.04 ± 0.021
AATAGAAGGA | 0.9888 ± 0.0037
AATAGAATTT | 0.997 ± 0.035
AATAGCATGT | 0.981 ± 0.012
AATAGCTAAA | 0.999 ± 0.03
AATAGGAAGG | 1.01 ± 0.046
AATAGGAATG | 0.996 ± 0.017

Sequence | switch fluorescence ratio
AATAGGGCG | 1.038 ± 0.0084
AATAGGGTTA | 1 ± 0.045
AATAGGGTTC | 0.982 ± 0.025
AATAGGTCAT | 1.02 ± 0.028
AATAGGTGGG | 0.951 ± 0.016
AATAGTACAA | 1.04 ± 0.0056
AATAGTACTG | 1 ± 0.071
AATAGTAGGG | 1.01 ± 0.017
AATAGTCGGC | 1 ± 0.042
AATAGTGGTT | 1.004 ± 0.0033
AATAGTTCTG | 0.951 ± 0.043
AATATAACCT | 1.94 ± 0.092
AATATACTTT | 1.04 ± 0.051
AATATAGGGT | 0.997 ± 0.028
AATATATTGA | 0.996 ± 0.02
AATATATTGG | 1.028 ± 0.0042
AATATCATAC | 1.05 ± 0.021
AATATCCGTA | 1.01 ± 0.033
AATATGATTG | 1.02 ± 0.019
AATATGGAGG | 0.985 ± 0.033
AATATGGGGG | 1.01 ± 0.025
AATATGGGTG | 1.08 ± 0.01
AATATGTATC | 1.003 ± 0.0029
AATATGTCTG | 0.937 ± 0.06
AATATGTGGT | 0.972 ± 0.015

Sequence | switch fluorescence ratio
AATATTGTT | 0.996 ± 0.01
AATATTTAGG | 0.987 ± 0.035
AATATTTCAT | 0.966 ± 0.025
AATATTTCCA | 0.974 ± 0.023
AATATTTCGG | 0.99 ± 0.0092
AATATTTGG | 1.008 ± 0.0091
AATATTTTTT | 1.01 ± 0.049
AATCAAAAAG | 0.959 ± 0.018
AATCAGACGG | 1.02 ± 0.021
AATCAGGCCT | 1.05 ± 0.043
AATCATAGTA | 1.011 ± 0.0089
AATCATGTGC | 1 ± 0.04
AATCCGAGGA | 1.05 ± 0.054
AATCCTGTTT | 1.01 ± 0.067
AATCCTTGAG | 1.02 ± 0.034
AATCGAAAGA | 1.02 ± 0.039
AATCGGAATT | 1.01 ± 0.03
AATCGGATGG | 1.02 ± 0.037
AATCGGCGCT | 1.01 ± 0.045
AATCGGGTTT | 0.953 ± 0.02
AATCGGTTAG | 1 ± 0.03
AATCGGTTGT | 0.9815 ± 0.005
AATCGTTAAG | 0.97 ± 0.015
AATCGTTGAA | 1.01 ± 0.017
AATCTAAGGT | 0.983 ± 0.064

Sequence | switch fluorescence ratio
AATCTCATAG | 1.01 ± 0.012
AATCTCCATT | 0.982 ± 0.025
AATCTGCCCA | 1.04 ± 0.015
AATCTGCCTG | 0.99 ± 0.011
AATCTGGGAG | 0.996 ± 0.015
AATCTGTTAT | 0.992 ± 0.033
AATCTTGATT | 1.2 ± 0.24
AATCTTGGGT | 0.972 ± 0.012
AATGAAAGCC | 1.26 ± 0.39
AATGAACTAG | 1.01 ± 0.053
AATGAAGTCC | 1.054 ± 0.0038
AATGAAGTCG | 0.997 ± 0.064
AATGACGATG | 1.02 ± 0.029
AATGAGGGGA | 1 ± 0.013
AATGAGGTCG | 1.002 ± 0.0046
AATGATATGA | 1.02 ± 0.05
AATGATCCAG | 0.983 ± 0.032
AATGATGTGG | 0.998 ± 0.021
AATGATTGGG | 0.977 ± 0.02
AATGATTGTT | 0.992 ± 0.03
AATGCGAGAA | 0.973 ± 0.024
AATGCTGGGG | 1.05 ± 0.081
AATGGAACGG | 1.02 ± 0.032
AATGGAGGAG | 1.01 ± 0.023
AATGGATAAC | 0.9862 ± 0.0045
